B1: gC1qR, wild type, mature recombinant (receptor for the globular heads of C1q) (receptor, UniProt Q07021 74-282, looked up)
chain: LHTDGDKAFVDFLSDEIKEERKIQKHKTLPKMSGGWELELNGTEAKLVRKVAGEKITVTFNINNSIPPTFDGEEEPSQGQKVEEQEPELTSTPNFVVEVIKNDDGKKALVLDCHYPEDEVGQEDEAESDIFSIREVSFQSTGESEWKDTNYTLNTDSLDWALYDHLMDFLADRGVDNTFADELVELSTALEHQEYITFLEDLKSFVKSQ
modifications: biotin (biotinylated gC1qR in the ELISA; not said for the SPR surface)
notes: also called gC1qR-WT; biotinylated gC1qR

Tests used:
[1] = target: B1; assay: SPR; gC1qR-WT or gC1qR-ΔΔ immobilised; two-fold dilution series of analyte injected; reference-corrected sensorgrams fit to kinetic models; apparent KD; details: both partners purified
[2] = target: T1, SARS-CoV-2 nucleocapsid (N) protein, recombinant (SARS-CoV-2, UniProt P0DTC9 1-419); assay: as above; details: both partners purified
T1 construct: also called Nucleocapsid protein

Binder	Kd [1] [µM]	Kd [2] [µM]
HKHGHGHGKHKNKGKKNGKH [synthetic peptide corresponding to the gC1qR-binding region from HK]	2000	–
B1	–	6
